Article PMC7353009, “Identification of Substrates of Cytoplasmic Peptidyl-Prolyl Cis/Trans Isomerases and Their Collective Essentiality in Escherichia Coli” (International Journal of Molecular Sciences, 2020)
“And” between values parts separate entries of the source, which are not always exact repeats. Equal entries are not always repeated.

B1: RseA peptide Rse3 (peptide)
peptide: IIEEEPVRQPATL
notes: peptide from the conserved regions of the N-terminal domain of RseA, E. coli
B2: Hexa-His-tagged PpiC (wild type) (enzyme, E. coli, UniProt P0A9L5 1-93, looked up)
chain: MAKTAAALHILVKEEKLALDLLEQIKNGADFGKLAKKHSICPSGKRGGDLGEFRQGQMVPAFDKVVFSCPVLEPTGPLHTQFGYHIIKVLYRN
notes: PpiC, parvulin peptidyl-prolyl cis/trans isomerase, E. coli; coding region of the ppiC gene in pET24b; The tag is called cleavable; also called wt PpiC; wild-type PpiC; source: E. coli T7 express derivative lacking all six PPIs (SR21984), IPTG-induced; in lysate on Ni-NTA for co-elution; purified (Ni-NTA) for ITC; not shown: His6, C-terminal, kept
B3: RseA peptide Rse1 (peptide, UniProt P0AFX7 2-29, looked up)
peptide: QKEQLSALMDGETLDSELLNELAHNPEM
notes: peptide corresponding to amino acid 2-29 of N-RseA (N-terminal domain of the anti-sigma factor RseA), E. coli
B4: AhpC-derived peptide (peptide)
peptide: RATFVVDPQGI
notes: peptide from AhpC (alkyl hydroperoxide reductase subunit C), E. coli; also called AhpC peptide
B10: Hexa-His-tagged FkpB (wild type) (enzyme, E. coli, UniProt P0AEM0 1-149, looked up)
chain: MSESVQSNSAVLVHFTLKLDDGTTAESTRNNGKPALFRLGDASLSEGLEQHLLGLKVGDKTTFSLEPDAAFGVPSPDLIQYFSRREFMDAGEPEIGAIMLFTAMDGSEMPGVIREINGDSITVDFNHPLAGQTVHFDIEVLEIDPALEA
notes: FkpB, FKBP-type peptidyl-prolyl cis/trans isomerase, E. coli; minimal coding region of the fkpB gene in pET24b; also called wild-type FkpB; source: E. coli T7 express derivative lacking all six PPIs (SR21984), IPTG-induced; in lysate on Ni-NTA for co-elution; purified (Ni-NTA) for ITC; not shown: His6, C-terminal, kept

Assays:
[1] = biological target: B10; test: ITC; Nano ITC; 200 μM peptide in the cell titrated with 2 mM protein, 25 injections of 2 μL, 20 °C, 20 mM sodium phosphate pH 7.5, 100 mM NaCl; 1:1 binding model; details: both partners purified
AhpC-derived peptide = biological target: B4; test: as above; details: both partners purified
[2] = biological target: T1, Hexa-His-tagged PpiC M57A (E. coli); test: ITC
T1 chain: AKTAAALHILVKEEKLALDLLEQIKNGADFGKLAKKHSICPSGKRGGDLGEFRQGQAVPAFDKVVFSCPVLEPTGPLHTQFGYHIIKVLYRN

[3] = biological target: T2, Hexa-His-tagged PpiC F81A (E. coli); test: ITC
T2 chain: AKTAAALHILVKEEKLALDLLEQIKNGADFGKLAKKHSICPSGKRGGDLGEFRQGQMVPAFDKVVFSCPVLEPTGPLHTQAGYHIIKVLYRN

[4] = biological target: T3, Hexa-His-tagged FkpB (wild type) (E. coli, UniProt P0AEM0 1-149); test: ITC
T3 chain: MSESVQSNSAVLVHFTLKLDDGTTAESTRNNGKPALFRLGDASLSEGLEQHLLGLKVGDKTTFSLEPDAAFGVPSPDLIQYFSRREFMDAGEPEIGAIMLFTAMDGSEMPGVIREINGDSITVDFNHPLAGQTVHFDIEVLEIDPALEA

[5] = biological target: B2; test: ITC; Nano ITC; 200 μM peptide in the cell titrated with 2 mM protein, 25 injections of 2 μL, 20 °C, 20 mM sodium phosphate pH 7.5, 100 mM NaCl; 1:1 binding model; details: both partners purified
RseA peptide Rse1 = biological target: B3; test: as above; details: both partners purified
RseA peptide Rse3 = biological target: B1; test: as above; details: both partners purified

B1
Kd [1]: 13 µM

B2
stoichiometry N (AhpC-derived peptide): 0.99

B3
Kd [1]: 15.1 µM

B4
Kd [2]: 68.8 µM | Kd [3]: 77.6 µM | Kd [4]: 30.3 µM | Kd [5]: 30 µM and 47.4 µM | Kd [1]: 47 µM

B5: S2-derived peptide (peptide)
chain: TRYWNPKMKPFIFGA
modifications: This paper prints neither letters nor limits. Limits 20-34 are recalled from the SlyD/FKBP S2 peptide of the cited work (ref. 12), as are the check residues. Terminal modifications unknown.
Kd [1]: 18.8 µM

B6: RpoE peptide P2 (peptide)
peptide: KVASLVSRYVPSGDV
notes: peptide derived from conserved region 2 of RpoE, E. coli
Kd [1]: 10.7 µM

B7: RpoE peptide P4 (peptide)
peptide: AAIMDCPVGTVRSRI
notes: peptide derived from conserved region 4 of RpoE, E. coli
Kd [1]: 10.3 µM

B8: RpoE peptide P1 (peptide)
peptide: YLVAQGRRPPSSDVD
notes: peptide corresponding to the C-terminal end of conserved region 2.4 of RpoE, E. coli
Kd [1]: 38.1 µM

B9: RpoE peptide P3 (peptide)
peptide: FRAREAIDNKVQPLIRR
notes: peptide covering conserved region 4 of RpoE, E. coli, including R178
Kd [1]: 19 µM

B10
dH (RseA peptide Rse1): -2.18 kcal/mol | stoichiometry N (RseA peptide Rse1): 1 | dH (RseA peptide Rse3): -1.48 kcal/mol | stoichiometry N (AhpC-derived peptide): 0.99
